{
  "source": "patent US20090208416A1",
  "key": {"[1]": {"biological_target": "NKG2A on rhesus monkey (Macaca mulatta) NK cells (rhesus monkey (Macaca mulatta)) (UniProt Q9MZJ3)", "sequence (Q9MZJ3 whole entry)": "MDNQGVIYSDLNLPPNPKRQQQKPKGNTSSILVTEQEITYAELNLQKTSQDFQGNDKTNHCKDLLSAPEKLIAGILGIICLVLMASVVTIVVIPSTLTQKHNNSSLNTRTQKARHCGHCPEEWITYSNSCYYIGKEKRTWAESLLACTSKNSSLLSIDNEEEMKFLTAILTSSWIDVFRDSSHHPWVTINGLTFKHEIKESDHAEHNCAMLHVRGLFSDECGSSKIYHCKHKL", "experiment": "FACS rhesus whole blood, animal R00007"}, "[2]": {"biological_target": "NKG2A on rhesus monkey (Macaca mulatta) NK cells (rhesus monkey (Macaca mulatta)) (UniProt Q9MZJ3)", "experiment": "FACS rhesus whole blood, animal R00025"}, "[3]": {"biological_target": "NKG2A on rhesus monkey (Macaca mulatta) NK cells (rhesus monkey (Macaca mulatta)) (UniProt Q9MZJ3)", "experiment": "FACS rhesus whole blood, animal R00037"}, "[4]": {"biological_target": "NKG2A on rhesus monkey (Macaca mulatta) NK cells (rhesus monkey (Macaca mulatta)) (UniProt Q9MZJ3)", "experiment": "FACS rhesus whole blood, animal R00041"}, "[5]": {"biological_target": "NKG2A on rhesus monkey (Macaca mulatta) NK cells (rhesus monkey (Macaca mulatta)) (UniProt Q9MZJ3)", "experiment": "FACS rhesus whole blood, animal R00077"}, "[6]": {"biological_target": "NKG2A on rhesus monkey (Macaca mulatta) NK cells (rhesus monkey (Macaca mulatta)) (UniProt Q9MZJ3)", "experiment": "FACS rhesus whole blood, animal R00085"}, "[7]": {"biological_target": "NKG2A on rhesus monkey (Macaca mulatta) NK cells (rhesus monkey (Macaca mulatta)) (UniProt Q9MZJ3)", "experiment": "FACS rhesus whole blood, animal R00093"}, "[8]": {"biological_target": "NKG2A on rhesus monkey (Macaca mulatta) NK cells (rhesus monkey (Macaca mulatta)) (UniProt Q9MZJ3)", "experiment": "FACS rhesus whole blood, animal R00099"}, "[9]": {"biological_target": "NKG2A on rhesus monkey (Macaca mulatta) NK cells (rhesus monkey (Macaca mulatta)) (UniProt Q9MZJ3)", "experiment": "FACS rhesus whole blood, animal R99273"}, "[10]": {"biological_target": "NKG2A on cynomolgus monkey NK cells (cynomolgus monkey) (UniProt Q68VD2)", "sequence (Q68VD2 entry or part of it)": "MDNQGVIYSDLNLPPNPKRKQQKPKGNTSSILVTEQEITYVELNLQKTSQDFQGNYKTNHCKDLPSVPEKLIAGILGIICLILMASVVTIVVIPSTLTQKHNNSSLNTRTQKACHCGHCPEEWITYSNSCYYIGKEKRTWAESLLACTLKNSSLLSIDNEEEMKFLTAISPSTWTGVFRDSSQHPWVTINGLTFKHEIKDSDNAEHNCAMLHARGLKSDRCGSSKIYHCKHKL", "experiment": "FACS cynomolgus whole blood, animal R390"}, "[11]": {"biological_target": "NKG2A on cynomolgus monkey NK cells (cynomolgus monkey) (UniProt Q68VD2)", "experiment": "FACS cynomolgus whole blood, animal AL389"}, "[12]": {"biological_target": "NKG2A on rhesus monkey (Macaca mulatta) NK cells (rhesus monkey (Macaca mulatta)) (UniProt Q9MZJ3)", "experiment": "FACS rhesus whole blood, mean over animals"}, "[13]": {"biological_target": "NKG2A on baboon NK cells (baboon)", "experiment": "FACS baboon whole blood NK cells, animal O22V"}, "[14]": {"biological_target": "NKG2A on baboon NK cells (baboon)", "experiment": "FACS baboon whole blood NK cells, animal V997"}, "[15]": {"biological_target": "NKG2A on rhesus monkey (Macaca mulatta) NK cells (rhesus monkey (Macaca mulatta)) (UniProt Q9MZJ3)", "experiment": "FACS rhesus whole blood NK cells, animal *8703"}, "[16]": {"biological_target": "NKG2A on rhesus monkey (Macaca mulatta) NK cells (rhesus monkey (Macaca mulatta)) (UniProt Q9MZJ3)", "experiment": "FACS rhesus whole blood NK cells, animal MM031"}, "[17]": {"biological_target": "NKG2A on rhesus monkey (Macaca mulatta) NK cells (rhesus monkey (Macaca mulatta)) (UniProt Q9MZJ3)", "experiment": "FACS rhesus whole blood NK cells, animal P9215"}, "[18]": {"biological_target": "NKG2A on baboon NK cells (baboon)", "experiment": "FACS baboon whole blood NK cells, animal PA983"}, "[19]": {"biological_target": "NKG2A on baboon NK cells (baboon)", "experiment": "FACS baboon whole blood NK cells, animal V914B"}, "[20]": {"biological_target": "NKG2A on baboon NK cells (baboon)", "experiment": "FACS baboon whole blood NK cells, animal V9812"}, "[21]": {"biological_target": "NKG2A on baboon NK cells (baboon)", "experiment": "FACS baboon whole blood NK cells, animal V9914"}, "[22]": {"biological_target": "NKG2A on baboon NK cells (baboon)", "experiment": "FACS baboon whole blood NK cells, animal V9920"}, "[23]": {"biological_target": "NKG2A on baboon NK cells (baboon)", "experiment": "FACS baboon whole blood NK cells, animal V9929"}, "[24]": {"biological_target": "NKG2A on rhesus monkey (Macaca mulatta) NK cells (rhesus monkey (Macaca mulatta)) (UniProt Q9MZJ3)", "experiment": "FACS rhesus whole blood, animal R00073 (6.1 kg)"}, "[25]": {"biological_target": "NKG2A on cynomolgus monkey NK cells (cynomolgus monkey) (UniProt Q68VD2)", "experiment": "FACS cynomolgus whole blood, mean of 10 animals"}, "[26]": {"biological_target": "NKG2A on rhesus monkey (Macaca mulatta) NK cells (rhesus monkey (Macaca mulatta)) (UniProt Q9MZJ3)", "experiment": "FACS rhesus whole blood NK cells, mean of 9 animals"}},
  "data": [
    {"substance": "mouse IgG1 isotype control (antibody)", "values": [
      {"measurement": "% NK+", "setting": "[1]", "result": 1.5, "unit": "%"},
      {"measurement": "MFI", "setting": "[1]", "result": 0.52},
      {"measurement": "% NK+", "setting": "[2]", "result": 0.7, "unit": "%"},
      {"measurement": "MFI", "setting": "[2]", "result": 0.45},
      {"measurement": "% NK+", "setting": "[3]", "result": 0.6, "unit": "%"},
      {"measurement": "MFI", "setting": "[3]", "result": 0.5},
      {"measurement": "% NK+", "setting": "[4]", "result": 0.9, "unit": "%"},
      {"measurement": "MFI", "setting": "[4]", "result": 0.48},
      {"measurement": "% NK+", "setting": "[5]", "result": 0.4, "unit": "%"},
      {"measurement": "MFI", "setting": "[5]", "result": 0.41},
      {"measurement": "% NK+", "setting": "[6]", "result": 0.9, "unit": "%"},
      {"measurement": "MFI", "setting": "[6]", "result": 0.7},
      {"measurement": "% NK+", "setting": "[7]", "result": 1, "unit": "%"},
      {"measurement": "MFI", "setting": "[7]", "result": 0.68},
      {"measurement": "% NK+", "setting": "[8]", "result": 1.2, "unit": "%"},
      {"measurement": "MFI", "setting": "[8]", "result": 0.56},
      {"measurement": "% NK+", "setting": "[9]", "result": 0.5, "unit": "%"},
      {"measurement": "MFI", "setting": "[9]", "result": 0.54},
      {"measurement": "% NK+", "setting": "[10]", "result": 0.2, "unit": "%"},
      {"measurement": "MFI", "setting": "[10]", "result": 0.39},
      {"measurement": "% NK+", "setting": "[11]", "result": 0.3, "unit": "%"},
      {"measurement": "MFI", "setting": "[11]", "result": 0.63},
      {"measurement": "% NK+ (Mean)", "setting": "[12]", "result": 0.7, "unit": "%"},
      {"measurement": "MFI (Mean)", "setting": "[12]", "result": 0.6},
      {"measurement": "%", "setting": "[13]", "result": 0.5, "unit": "%"},
      {"measurement": "tot. MFI", "setting": "[13]", "result": 0.2},
      {"measurement": "%", "setting": "[14]", "result": 0.7, "unit": "%"},
      {"measurement": "tot. MFI", "setting": "[14]", "result": 0.2},
      {"measurement": "%", "setting": "[15]", "result": 0.4, "unit": "%"},
      {"measurement": "%", "setting": "[16]", "result": 0.4, "unit": "%"},
      {"measurement": "%", "setting": "[17]", "result": 1.4, "unit": "%"},
      {"measurement": "%", "setting": "[18]", "result": 0.1, "unit": "%"},
      {"measurement": "tot. MFI", "setting": "[18]", "result": 0.7},
      {"measurement": "%", "setting": "[19]", "result": 0.4, "unit": "%"},
      {"measurement": "tot. MFI", "setting": "[19]", "result": 1.1},
      {"measurement": "%", "setting": "[20]", "result": 1.3, "unit": "%"},
      {"measurement": "tot. MFI", "setting": "[20]", "result": 1.2},
      {"measurement": "%", "setting": "[21]", "result": 0.1, "unit": "%"},
      {"measurement": "tot. MFI", "setting": "[21]", "result": 0.3},
      {"measurement": "%", "setting": "[22]", "result": 0.7, "unit": "%"},
      {"measurement": "tot. MFI", "setting": "[22]", "result": 0.8},
      {"measurement": "%", "setting": "[23]", "result": 0.3, "unit": "%"},
      {"measurement": "tot. MFI", "setting": "[23]", "result": 0.2},
      {"measurement": "% NK+", "setting": "[24]", "result": 0.7, "unit": "%"},
      {"measurement": "MFI", "setting": "[24]", "result": 0.59},
      {"measurement": "% NK+ (Mean)", "setting": "[25]", "result": 0.3, "unit": "%"},
      {"measurement": "MFI (Mean)", "setting": "[25]", "result": 0.6},
      {"measurement": "% (Mean)", "setting": "[26]", "result": 0.7, "unit": "%"}
    ]}
  ]
}
